# T1: fibrinogen (UniProt P02671-2 20-644; P02675 31-491; P02679-2 27-437)
# T1 construct: fibrinogen alpha chain; fibrinogen beta chain; fibrinogen gamma chain; Named only as fibrinogen; also called Fg
# T1 sequence (looked up) 1: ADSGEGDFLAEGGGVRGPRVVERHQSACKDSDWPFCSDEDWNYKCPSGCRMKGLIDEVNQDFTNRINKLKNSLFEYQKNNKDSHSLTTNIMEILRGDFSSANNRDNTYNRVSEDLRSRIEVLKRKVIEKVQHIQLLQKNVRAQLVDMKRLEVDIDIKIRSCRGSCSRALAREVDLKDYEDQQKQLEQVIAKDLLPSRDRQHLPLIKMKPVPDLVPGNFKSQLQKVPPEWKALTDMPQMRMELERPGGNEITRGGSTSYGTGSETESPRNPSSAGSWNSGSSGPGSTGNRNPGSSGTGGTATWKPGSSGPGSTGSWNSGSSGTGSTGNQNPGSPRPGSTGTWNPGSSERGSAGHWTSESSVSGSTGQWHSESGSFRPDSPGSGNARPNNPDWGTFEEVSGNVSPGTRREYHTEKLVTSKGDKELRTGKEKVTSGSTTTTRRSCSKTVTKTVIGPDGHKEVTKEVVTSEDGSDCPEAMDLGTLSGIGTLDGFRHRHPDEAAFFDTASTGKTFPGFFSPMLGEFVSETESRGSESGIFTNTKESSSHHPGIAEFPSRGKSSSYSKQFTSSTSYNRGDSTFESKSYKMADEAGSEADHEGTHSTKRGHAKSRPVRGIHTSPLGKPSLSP
# T1 sequence (looked up) 2: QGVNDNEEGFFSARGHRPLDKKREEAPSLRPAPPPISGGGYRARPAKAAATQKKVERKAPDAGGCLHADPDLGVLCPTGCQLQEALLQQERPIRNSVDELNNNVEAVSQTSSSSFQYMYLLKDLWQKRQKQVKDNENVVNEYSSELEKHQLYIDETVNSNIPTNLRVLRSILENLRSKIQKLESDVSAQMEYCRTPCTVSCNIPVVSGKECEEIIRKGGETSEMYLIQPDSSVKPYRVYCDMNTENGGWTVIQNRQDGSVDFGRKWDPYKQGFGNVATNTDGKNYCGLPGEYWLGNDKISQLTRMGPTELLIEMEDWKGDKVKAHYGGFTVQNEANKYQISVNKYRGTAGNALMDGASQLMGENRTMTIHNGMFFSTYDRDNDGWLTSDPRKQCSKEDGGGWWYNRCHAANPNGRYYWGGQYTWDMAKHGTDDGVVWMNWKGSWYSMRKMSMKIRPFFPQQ
# T1 sequence (looked up) 3: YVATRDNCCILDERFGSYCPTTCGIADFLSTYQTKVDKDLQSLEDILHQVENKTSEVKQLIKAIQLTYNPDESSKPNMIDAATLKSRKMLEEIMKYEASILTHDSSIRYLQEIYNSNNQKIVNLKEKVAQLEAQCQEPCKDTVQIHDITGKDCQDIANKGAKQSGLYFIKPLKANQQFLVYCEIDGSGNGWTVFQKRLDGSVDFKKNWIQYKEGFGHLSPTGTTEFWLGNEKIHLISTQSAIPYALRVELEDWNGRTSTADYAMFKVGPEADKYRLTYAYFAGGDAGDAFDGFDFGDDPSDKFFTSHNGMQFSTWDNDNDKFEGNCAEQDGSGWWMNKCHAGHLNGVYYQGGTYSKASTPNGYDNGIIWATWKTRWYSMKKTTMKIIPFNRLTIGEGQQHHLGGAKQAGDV
# B1: Emp3 (C-terminal fragment of Emp) (domain or fragment)
# chain: FAVPGYHAHKFVTPGHASIKINHFCVVPQINSFKVIPPYGHNSHRMHVPSFQNNTTATHQNAKVNKAYDYKYFYSYKVVKGVKKYFSFSQSNGYKIGKPSLNIKNVNYQYAVPSYSPTHYVPEFKGSLPAPRV
# notes: primers EmpFor3UA (+622) and EmpRev3UA (+1024, holds the stop codon) relative to ATG; limits worked out from these positions and count on the precursor; source: E. coli (TG1 transformants, plasmid pQemp3), purified (Ni-NTA in 8 M urea, solubilized by stepwise dialysis)
# B2: Emp2+3 (combination of Emp2 and Emp3; N-truncated Emp) (domain or fragment)
# chain: YKEINNRVNVATNNPASQQVDKHFVAKGPEVNRFITQNKVNHHFITTQTHYKKVITSYKSTHVHKHVNHAKDSINKHFIVKPSESPRYTHPSQSLIIKHHFAVPGYHAHKFVTPGHASIKINHFCVVPQINSFKVIPPYGHNSHRMHVPSFQNNTTATHQNAKVNKAYDYKYFYSYKVVKGVKKYFSFSQSNGYKIGKPSLNIKNVNYQYAVPSYSPTHYVPEFKGSLPAPRV
# notes: limits worked out from these positions and count on the precursor; source: E. coli (TG1 transformants, plasmid pQemp2 + 3), purified (Ni-NTA in 8 M urea, solubilized by stepwise dialysis)
# B3: Emp1+2 (combination of Emp1 and Emp2) (domain or fragment)
# chain: ASVTESVDKKFVVPESGINKIIPAYDEFKNSPKVNVSNLTDNKNFVASEDKLNKIADSSAASKIVDKNFVVPESKLGNIVPEYKEINNRVNVATNNPASQQVDKHFVAKGPEVNRFITQNKVNHHFITTQTHYKKVITSYKSTHVHKHVNHAKDSINKHFIVKPSESPRYTHPSQSLIIKHHFAVPGYHAH
# notes: limits worked out from these positions and count on the precursor; source: E. coli (TG1 transformants, plasmid pQemp1 + 2), purified (Ni-NTA in 8 M urea, solubilized by stepwise dialysis)
# B4: full-length Emp protein (extracellular matrix protein Emp of Staphylococcus aureus, without the signal peptide) (natural protein)
# chain: SVTESVDKKFVVPESGINKIIPAYDEFKNSPKVNVSNLTDNKNFVASEDKLNKIADSSAASKIVDKNFVVPESKLGNIVPEYKEINNRVNVATNNPASQQVDKHFVAKGPEVNRFITQNKVNHHFITTQTHYKKVITSYKSTHVHKHVNHAKDSINKHFIVKPSESPRYTHPSQSLIIKHHFAVPGYHAHKFVTPGHASIKINHFCVVPQINSFKVIPPYGHNSHRMHVPSFQNNTTATHQNAKVNKAYDYKYFYSYKVVKGVKKYFSFSQSNGYKIGKPSLNIKNVNYQYAVPSYSPTHYVPEFKGSLPAPRV
# notes: gene of 1,023 nucleotides; numbers count on: the protein without signal peptide and without His-tag; The vector (printed pQ30-UA, Qiagen) probably adds an N-terminal His6 (surmised); Primer EmpFor1UA starts at nt +76 (codon 26), which would give 315 residues against the printed 314; also called EmpFL; source: E. coli (TG1 transformants, plasmid pQemp), purified (Ni-NTA in 8 M urea, solubilized by …)
# B5: Emp2 (central fragment of Emp) (domain or fragment)
# chain: YKEINNRVNVATNNPASQQVDKHFVAKGPEVNRFITQNKVNHHFITTQTHYKKVITSYKSTHVHKHVNHAKDSINKHFIVKPSESPRYTHPSQSLIIKHHFAVPGYHAH
# notes: primers EmpFor2UA (+322) and EmpRev2UA (+648) relative to ATG; limits worked out from these positions and count on the precursor; source: E. coli (TG1 transformants, plasmid pQemp2), purified (Ni-NTA in 8 M urea, solubilized by stepwise dialysis)
# Experiments:
# [1] = target: fibronectin (Homo sapiens) (UniProt P02751); test: SPR; settings: cited from earlier work
# [2] = target: fibrinogen (Homo sapiens) (UniProt P02671); test: SPR; settings: cited from earlier work
# [3] = target: vitronectin (Homo sapiens) (UniProt P04004); test: SPR; settings: cited from earlier work
# fibronectin = fibronectin (UniProt P02751 32-2477); test: ELISA; matrix component (0.25 ug/well in 0.1 M Na2CO3, overnight 4 C) immobilised on polystyrene plates; Emp forms 0-1.5 uM added for 1 h at RT, PBST washes; detected with polyclonal anti-Emp IgG and AP-conjugated anti-rabbit IgG; KD from steady-state curves, one-site binding model; settings: both partners purified
# fibrinogen = target: T1, fibrinogen; test: as above; settings: both partners purified
# collagen I = target: T2, collagen I (UniProt P02452 162-1218; P08123 80-1119); test: as above; settings: both partners purified
# T2 construct: collagen alpha-1(I) chain; collagen alpha-2(I) chain; Named only as collagen I; also called Cn I; Cn l
# vitronectin = test: as above
# vitronectin, sequence (P04004 20-478): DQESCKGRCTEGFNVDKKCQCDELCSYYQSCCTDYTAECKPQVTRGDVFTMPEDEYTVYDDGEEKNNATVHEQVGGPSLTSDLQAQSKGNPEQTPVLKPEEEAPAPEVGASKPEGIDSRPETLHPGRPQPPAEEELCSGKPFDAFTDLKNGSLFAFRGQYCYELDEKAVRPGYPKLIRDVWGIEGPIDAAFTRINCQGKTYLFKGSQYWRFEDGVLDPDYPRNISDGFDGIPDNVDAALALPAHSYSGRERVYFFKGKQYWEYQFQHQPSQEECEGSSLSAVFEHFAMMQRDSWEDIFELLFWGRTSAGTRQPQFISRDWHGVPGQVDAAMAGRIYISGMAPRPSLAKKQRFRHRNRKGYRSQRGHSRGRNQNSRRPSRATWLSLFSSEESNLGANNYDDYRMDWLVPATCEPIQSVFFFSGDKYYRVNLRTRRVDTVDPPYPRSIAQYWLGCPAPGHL
# fibronectin, sequence (P02751 32-2477): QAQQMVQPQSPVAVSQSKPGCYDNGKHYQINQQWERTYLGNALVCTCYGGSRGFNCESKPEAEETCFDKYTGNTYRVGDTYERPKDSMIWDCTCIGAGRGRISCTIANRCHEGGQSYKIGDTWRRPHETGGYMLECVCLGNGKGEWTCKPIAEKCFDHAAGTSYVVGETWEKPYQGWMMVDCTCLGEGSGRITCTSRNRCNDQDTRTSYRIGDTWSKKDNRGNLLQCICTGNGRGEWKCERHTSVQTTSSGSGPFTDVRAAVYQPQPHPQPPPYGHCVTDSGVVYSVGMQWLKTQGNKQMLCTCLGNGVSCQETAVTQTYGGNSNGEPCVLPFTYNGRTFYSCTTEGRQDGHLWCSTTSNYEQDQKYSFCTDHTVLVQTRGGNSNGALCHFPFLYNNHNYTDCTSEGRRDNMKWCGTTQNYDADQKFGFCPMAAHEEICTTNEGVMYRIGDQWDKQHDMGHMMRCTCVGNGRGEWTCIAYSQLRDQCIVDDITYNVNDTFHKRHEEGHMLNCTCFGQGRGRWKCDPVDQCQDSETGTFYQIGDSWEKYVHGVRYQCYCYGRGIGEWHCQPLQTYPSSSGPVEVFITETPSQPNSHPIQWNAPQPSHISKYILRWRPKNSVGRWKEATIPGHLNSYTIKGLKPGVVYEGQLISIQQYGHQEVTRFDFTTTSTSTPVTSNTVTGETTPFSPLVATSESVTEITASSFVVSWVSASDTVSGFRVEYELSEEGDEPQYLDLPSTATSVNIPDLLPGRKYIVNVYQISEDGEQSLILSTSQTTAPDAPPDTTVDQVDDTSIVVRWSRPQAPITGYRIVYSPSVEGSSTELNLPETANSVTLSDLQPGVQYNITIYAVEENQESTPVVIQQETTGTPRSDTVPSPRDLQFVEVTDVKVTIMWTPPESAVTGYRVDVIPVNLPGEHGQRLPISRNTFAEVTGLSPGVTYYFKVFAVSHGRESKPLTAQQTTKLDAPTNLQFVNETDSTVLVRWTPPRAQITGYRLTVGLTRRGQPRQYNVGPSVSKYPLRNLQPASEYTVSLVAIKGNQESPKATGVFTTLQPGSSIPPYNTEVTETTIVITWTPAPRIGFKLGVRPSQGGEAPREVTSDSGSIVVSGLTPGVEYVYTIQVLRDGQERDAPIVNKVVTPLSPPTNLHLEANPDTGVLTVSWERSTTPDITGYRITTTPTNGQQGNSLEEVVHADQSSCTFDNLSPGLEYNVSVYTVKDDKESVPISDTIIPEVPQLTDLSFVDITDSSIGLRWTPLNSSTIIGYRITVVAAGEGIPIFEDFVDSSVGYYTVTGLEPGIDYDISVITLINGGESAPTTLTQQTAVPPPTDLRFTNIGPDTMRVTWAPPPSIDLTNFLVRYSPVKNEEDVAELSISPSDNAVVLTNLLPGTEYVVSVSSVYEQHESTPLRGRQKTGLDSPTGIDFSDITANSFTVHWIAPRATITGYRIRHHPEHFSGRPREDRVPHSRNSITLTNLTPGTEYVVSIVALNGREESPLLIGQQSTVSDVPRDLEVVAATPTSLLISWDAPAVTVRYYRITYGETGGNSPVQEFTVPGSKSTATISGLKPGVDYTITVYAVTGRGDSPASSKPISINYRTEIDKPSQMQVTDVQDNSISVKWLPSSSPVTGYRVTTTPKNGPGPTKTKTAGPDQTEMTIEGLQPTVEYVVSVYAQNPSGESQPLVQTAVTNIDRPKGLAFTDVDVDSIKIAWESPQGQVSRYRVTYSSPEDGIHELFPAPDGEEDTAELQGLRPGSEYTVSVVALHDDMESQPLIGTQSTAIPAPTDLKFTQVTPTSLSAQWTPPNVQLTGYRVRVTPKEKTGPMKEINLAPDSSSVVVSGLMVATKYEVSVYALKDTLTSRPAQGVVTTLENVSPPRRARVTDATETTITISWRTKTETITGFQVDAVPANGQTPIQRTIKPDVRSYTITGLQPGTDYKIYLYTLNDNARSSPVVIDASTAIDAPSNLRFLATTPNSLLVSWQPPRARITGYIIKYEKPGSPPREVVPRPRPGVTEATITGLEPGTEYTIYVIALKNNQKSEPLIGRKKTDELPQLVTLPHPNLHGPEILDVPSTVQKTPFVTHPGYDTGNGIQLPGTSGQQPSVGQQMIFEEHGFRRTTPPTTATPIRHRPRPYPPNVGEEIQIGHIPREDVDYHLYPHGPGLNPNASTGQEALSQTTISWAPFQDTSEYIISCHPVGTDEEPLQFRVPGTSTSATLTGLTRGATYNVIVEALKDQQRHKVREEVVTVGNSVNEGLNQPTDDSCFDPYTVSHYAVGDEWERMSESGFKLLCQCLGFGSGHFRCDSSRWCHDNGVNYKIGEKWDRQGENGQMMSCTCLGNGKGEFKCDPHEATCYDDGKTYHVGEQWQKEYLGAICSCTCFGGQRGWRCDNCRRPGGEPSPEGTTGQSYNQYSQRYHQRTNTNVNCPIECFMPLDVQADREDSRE
# T2 sequence (P02452 162-1218, chain 1 of 2): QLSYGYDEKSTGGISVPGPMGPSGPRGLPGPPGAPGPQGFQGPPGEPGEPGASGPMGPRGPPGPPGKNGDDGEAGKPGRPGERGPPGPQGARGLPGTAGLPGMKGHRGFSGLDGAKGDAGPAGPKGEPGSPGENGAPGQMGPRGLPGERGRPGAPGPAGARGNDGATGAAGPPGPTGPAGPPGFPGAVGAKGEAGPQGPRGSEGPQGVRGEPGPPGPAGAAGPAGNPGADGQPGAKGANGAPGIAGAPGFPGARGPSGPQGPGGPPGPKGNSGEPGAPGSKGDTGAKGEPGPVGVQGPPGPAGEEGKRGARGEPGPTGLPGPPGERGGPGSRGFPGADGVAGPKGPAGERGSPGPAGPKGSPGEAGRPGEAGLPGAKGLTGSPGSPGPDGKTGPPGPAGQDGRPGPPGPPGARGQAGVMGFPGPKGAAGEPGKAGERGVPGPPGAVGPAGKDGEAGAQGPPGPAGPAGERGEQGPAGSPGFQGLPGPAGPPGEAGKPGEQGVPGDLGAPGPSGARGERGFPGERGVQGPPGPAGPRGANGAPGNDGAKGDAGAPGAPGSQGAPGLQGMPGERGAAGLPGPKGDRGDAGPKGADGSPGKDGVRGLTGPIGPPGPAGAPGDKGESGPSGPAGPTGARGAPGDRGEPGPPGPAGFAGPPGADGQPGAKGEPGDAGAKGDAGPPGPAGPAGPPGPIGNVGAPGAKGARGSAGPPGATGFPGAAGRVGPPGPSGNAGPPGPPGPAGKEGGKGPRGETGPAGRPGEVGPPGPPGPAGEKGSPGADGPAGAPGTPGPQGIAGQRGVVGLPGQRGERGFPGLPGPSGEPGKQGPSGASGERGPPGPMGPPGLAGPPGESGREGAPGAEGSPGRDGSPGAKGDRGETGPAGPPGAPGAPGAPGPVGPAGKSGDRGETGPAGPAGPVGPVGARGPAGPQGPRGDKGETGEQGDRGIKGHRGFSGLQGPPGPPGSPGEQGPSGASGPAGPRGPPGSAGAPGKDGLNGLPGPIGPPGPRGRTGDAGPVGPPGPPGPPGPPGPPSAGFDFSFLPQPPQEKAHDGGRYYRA
# T2 sequence (P08123 80-1119, chain 2 of 2): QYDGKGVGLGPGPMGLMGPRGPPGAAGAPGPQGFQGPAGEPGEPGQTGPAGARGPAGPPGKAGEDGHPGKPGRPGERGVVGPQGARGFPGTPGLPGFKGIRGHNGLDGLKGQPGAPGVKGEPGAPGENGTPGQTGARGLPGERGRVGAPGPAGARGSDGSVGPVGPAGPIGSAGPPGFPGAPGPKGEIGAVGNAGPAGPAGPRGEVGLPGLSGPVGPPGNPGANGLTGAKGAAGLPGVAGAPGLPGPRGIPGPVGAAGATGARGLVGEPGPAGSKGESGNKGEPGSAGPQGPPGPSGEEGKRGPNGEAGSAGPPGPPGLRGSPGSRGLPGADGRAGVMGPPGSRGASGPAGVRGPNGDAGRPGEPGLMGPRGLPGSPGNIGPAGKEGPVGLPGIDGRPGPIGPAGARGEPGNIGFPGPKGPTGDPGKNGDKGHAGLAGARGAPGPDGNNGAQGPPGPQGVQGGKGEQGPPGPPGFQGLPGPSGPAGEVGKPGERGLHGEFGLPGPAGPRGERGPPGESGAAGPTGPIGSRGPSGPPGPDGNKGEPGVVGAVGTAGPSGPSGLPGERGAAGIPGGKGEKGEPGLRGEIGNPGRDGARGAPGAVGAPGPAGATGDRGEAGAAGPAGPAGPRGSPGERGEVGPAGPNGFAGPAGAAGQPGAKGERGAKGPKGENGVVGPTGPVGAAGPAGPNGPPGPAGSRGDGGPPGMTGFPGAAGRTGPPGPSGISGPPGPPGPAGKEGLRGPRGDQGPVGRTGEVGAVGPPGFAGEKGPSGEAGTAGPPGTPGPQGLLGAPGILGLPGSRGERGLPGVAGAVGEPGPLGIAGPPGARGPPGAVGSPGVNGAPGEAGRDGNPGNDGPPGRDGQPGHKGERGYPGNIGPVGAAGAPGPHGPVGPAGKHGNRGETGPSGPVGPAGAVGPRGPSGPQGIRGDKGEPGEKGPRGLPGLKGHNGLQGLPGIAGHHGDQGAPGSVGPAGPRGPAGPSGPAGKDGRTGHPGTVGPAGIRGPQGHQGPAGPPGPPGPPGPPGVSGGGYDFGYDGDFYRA
# fibronectin (Homo sapiens), sequence (P02751 32-2477): as the sequence (P02751 32-2477) above
# vitronectin (Homo sapiens), sequence (P04004 399-478): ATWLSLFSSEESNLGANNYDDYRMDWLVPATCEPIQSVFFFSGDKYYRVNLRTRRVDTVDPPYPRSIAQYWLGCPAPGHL
molecule,measurement,setting,value
Emp (from UniProt Q7A6P4),Kd,[1],21 nM
same,Kd,[2],91 nM
same,Kd,[3],0.122 nM
B1,Kd,fibronectin,311 ± 79 nM
same,Kd,fibrinogen,756 ± 224 nM
same,Kd,collagen I,32 ± 7 nM
same,Kd,vitronectin,449 nM
B2,Kd,fibronectin,404 ± 95 nM
same,Kd,fibrinogen,556 ± 115 nM
same,Kd,collagen I,207 ± 44 nM
same,Kd,vitronectin,200 nM
B3,Kd,fibronectin,3 ± 2 nM
same,Kd,fibrinogen,14 ± 3 nM
same,Kd,collagen I,31 ± 5 nM
same,Kd,vitronectin,9 nM
B4,Kd,fibronectin,43 ± 11 nM
same,Kd,fibrinogen,70 ± 1 nM
same,Kd,collagen I,27 ± 5 nM
same,Kd,vitronectin,34 nM
B5,Kd,fibronectin,8 ± 3 nM
same,Kd,fibrinogen,9 ± 2.6 nM
same,Kd,collagen I,13 ± 6 nM
same,Kd,vitronectin,18 nM

# — PMC5651841, “The Staphylococcus aureus extracellular matrix protein (Emp) has a fibrous structure and binds to different extracellular matrices” (Scientific Reports, 2017)
